Drawing on patent US9958461B2, “Detection of protein to protein interactions” (THE GOVERNING COUNCIL OF THE UNIVERSITY OF TORONTO, priority 2013, dated 2018), this text covers EGFR-L858R mean, EGFR-Wt mean and Wt/L858R for 6 molecules.

B1: TAB1 (protein, UniProt Q15750 1-504, looked up)
TGF-beta-activated kinase 1 …: MAAQRRSLLQSEQQPSWTDDLPLCHLSGVGSASNRSYSADGKGTESHPPEDSWLKFRSENNCFLYGVFNGYDGNRVTNFVAQRLSAELLLGQLNAEHAEADVRRVLLQAFDVVERSFLESIDDALAEKASLQSQLPEGVPQHQLPPQYQKILERLKTLEREISGGAMAVVAVLLNNKLYVANVGTNRALLCKSTVDGLQVTQLNVDHTTENEDELFRLSQLGLDAGKIKQVGIICGQESTRRIGDYKVKYGYTDIDLLSAAKSKPIIAEPEIHGAQPLDGVTGFLVLMSEGLYKALEAAHGPGQANQEIAAMIDTEFAKQTSLDAVAQAVVDRVKRIHSDTFASGGERARFCPRHEDMTLLVRNFGYPLGEMSQPTPSPAPAAGGRVYPVSVPYSSAQSTSKTSVTLSLVMPSQGQMVNGAHSASTLDEATPTLTNQSPTLTLQSTNTHTQSSSSSSDGGLFRSRPAHSLPPGEDGRVEPYVDFAEFYRLWSVDHGEQSVVTAP
B2: CAMLG (protein, UniProt P49069 1-296, looked up)
Guided entry of tail-anchored …: MESMAVATDGGERPGVPAGSGLSASQRRAELRRRKLLMNSEQRINRIMGFHRPGSGAEEESQTKSKQQDSDKLNSLSVPSVSKRVVLGDSVSTGTTDQQGGVAEVKGTQLGDKLDSFIKPPECSSDVNLELRQRNRGDLTADSVQRGSRHGLEQYLSRFEEAMKLRKQLISEKPSQEDGNTTEEFDSFRIFRLVGCALLALGVRAFVCKYLSIFAPFLTLQLAYMGLYKYFPKSEKKIKTTVLTAALLLSGIPAEVINRSMDTYSKMGEVFTDLCVYFFTFIFCHELLDYWGSEVP
B3: ABL2 (protein, UniProt P42684 2-1182, looked up)
Tyrosine-protein kinase ABL2: GQQVGRVGEAPGLQQPQPRGIRGSSAARPSGRRRDPAGRTTETGFNIFTQHDHFASCVEDGFEGDKTGGSSPEALHRPYGCDVEPQALNEAIRWSSKENLLGATESDPNLFVALYDFVASGDNTLSITKGEKLRVLGYNQNGEWSEVRSKNGQGWVPSNYITPVNSLEKHSWYHGPVSRSAAEYLLSSLINGSFLVRESESSPGQLSISLRYEGRVYHYRINTTADGKVYVTAESRFSTLAELVHHHSTVADGLVTTLHYPAPKCNKPTVYGVSPIHDKWEMERTDITMKHKLGGGQYGEVYVGVWKKYSLTVAVKTLKEDTMEVEEFLKEAAVMKEIKHPNLVQLLGVCTLEPPFYIVTEYMPYGNLLDYLRECNREEVTAVVLLYMATQISSAMEYLEKKNFIHRDLAARNCLVGENHVVKVADFGLSRLMTGDTYTAHAGAKFPIKWTAPESLAYNTFSIKSDVWAFGVLLWEIATYGMSPYPGIDLSQVYDLLEKGYRMEQPEGCPPKVYELMRACWKWSPADRPSFAETHQAFETMFHDSSISEEVAEELGRAASSSSVVPYLPRLPILPSKTRTLKKQVENKENIEGAQDATENSASSLAPGFIRGAQASSGSPALPRKQRDKSPSSLLEDAKETCFTRDRKGGFFSSFMKKRNAPTPPKRSSSFREMENQPHKKYELTGNFSSVASLQHADGFSFTPAQQEANLVPPKCYGGSFAQRNLCNDDGGGGGGSGTAGGGWSGITGFFTPRLIKKTLGLRAGKPTASDDTSKPFPRSNSTSSMSSGLPEQDRMAMTLPRNCQRSKLQLERTVSTSSQPEENVDRANDMLPKKSEESAAPSRERPKAKLLPRGATALPLRTPSGDLAITEKDPPGVGVAGVAAAPKGKEKNGGARLGMAGVPEDGEQPGWPSPAKAAPVLPTTHNHKVPVLISPTLKHTPADVQLIGTDSQGNKFKLLSEHQVTSSGDKDRPRRVKPKCAPPPPPVMRLLQHPSICSDPTEEPTALTAGQSTSETQEGGKKAALGAVPISGKAGRPVMPPPQVPLPTSSISPAKMANGTAGTKVALRKTKQAAEKISADKISKEALLECADLLSSALTEPVPNSQLVDTGHQLLDYCSGYVDCIPQTRNKFAFREAVSKLELSLQELQVSSAAAGVPGTNPVLNNLLSCVQEISDVVQR
B4: ZAP70 (protein, UniProt P43403 1-619, looked up)
Tyrosine-protein kinase ZAP-70: MPDPAAHLPFFYGSISRAEAEEHLKLAGMADGLFLLRQCLRSLGGYVLSLVHDVRFHHFPIERQLNGTYAIAGGKAHCGPAELCEFYSRDPDGLPCNLRKPCNRPSGLEPQPGVFDCLRDAMVRDYVRQTWKLEGEALEQAIISQAPQVEKLIATTAHERMPWYHSSLTREEAERKLYSGAQTDGKFLLRPRKEQGTYALSLIYGKTVYHYLISQDKAGKYCIPEGTKFDTLWQLVEYLKLKADGLIYCLKEACPNSSASNASGAAAPTLPAHPSTLTHPQRRIDTLNSDGYTPEPARITSPDKPRPMPMDTSVYESPYSDPEELKDKKLFLKRDNLLIADIELGCGNFGSVRQGVYRMRKKQIDVAIKVLKQGTEKADTEEMMREAQIMHQLDNPYIVRLIGVCQAEALMLVMEMAGGGPLHKFLVGKREEIPVSNVAELLHQVSMGMKYLEEKNFVHRDLAARNVLLVNRHYAKISDFGLSKALGADDSYYTARSAGKWPLKWYAPECINFRKFSSRSDVWSYGVTMWEALSYGQKPYKKMKGPEVMAFIEQGKRMECPPECPPELYALMSDCWIYKWEDRPDFLTVEQRMRACYYSLASKVEGPPGSTQKAEAACA
B5: Cdh1 (protein, UniProt P12830 155-882, looked up)
Cadherin-1: DWVIPPISCPENEKGPFPKNLVQIKSNKDKEGKVFYSITGQGADTPPVGVFIIERETGWLKVTEPLDRERIATYTLFSHAVSSNGNAVEDPMEILITVTDQNDNKPEFTQEVFKGSVMEGALPGTSVMEVTATDADDDVNTYNAAIAYTILSQDPELPDKNMFTINRNTGVISVVTTGLDRESFPTYTLVVQAADLQGEGLSTTATAVITVTDTNDNPPIFNPTTYKGQVPENEANVVITTLKVTDADAPNTPAWEAVYTILNDDGGQFVVTTNPVNNDGILKTAKGLDFEAKQQYILHVAVTNVVPFEVSLTTSTATVTVDVLDVNEAPIFVPPEKRVEVSEDFGVGQEITSYTAQEPDTFMEQKITYRIWRDTANWLEINPDTGAISTRAELDREDFEHVKNSTYTALIIATDNGSPVATGTGTLLLILSDVNDNAPIPEPRTIFFCERNPKPQVINIIDADLPPNTSPFTAELTHGASANWTIQYNDPTQESIILKPKMALEVGDYKINLKLMDNQNKDQVTTLEVSVCDCEGAAGVCRKAQPVEAGLQIPAILGILGGILALLILILLLLLFLRRRAVVKEPLLPPEDDTRDNVYYYDEEGGGEEDQDFDLSQLHRGLDARPEVTRNDVAPTLMSVPRYLPRPANPDEIGNFIDENLKAADTDPTAPPYDSLLVFDYEGSGSEAASLSSLNSSESDKDQDYDYLNEWGNRFKKLADMYGGGEDD
B6: STAT5A (protein, UniProt P42229 1-794, looked up)
Signal transducer and …: MAGWIQAQQLQGDALRQMQVLYGQHFPIEVRHYLAQWIESQPWDAIDLDNPQDRAQATQLLEGLVQELQKKAEHQVGEDGFLLKIKLGHYATQLQKTYDRCPLELVRCIRHILYNEQRLVREANNCSSPAGILVDAMSQKHLQINQTFEELRLVTQDTENELKKLQQTQEYFIIQYQESLRIQAQFAQLAQLSPQERLSRETALQQKQVSLEAWLQREAQTLQQYRVELAEKHQKTLQLLRKQQTIILDDELIQWKRRQQLAGNGGPPEGSLDVLQSWCEKLAEIIWQNRQQIRRAEHLCQQLPIPGPVEEMLAEVNATITDIISALVTSTFIIEKQPPQVLKTQTKFAATVRLLVGGKLNVHMNPPQVKATIISEQQAKSLLKNENTRNECSGEILNNCCVMEYHQATGTLSAHFRNMSLKRIKRADRRGAESVTEEKFTVLFESQFSVGSNELVFQVKTLSLPVVVIVHGSQDHNATATVLWDNAFAEPGRVPFAVPDKVLWPQLCEALNMKFKAEVQSNRGLTKENLVFLAQKLFNNSSSHLEDYSGLSVSWSQFNRENLPGWNYTFWQWFDGVMEVLKKHHKPHWNDGAILGFVNKQQAHDLLINKPDGTFLLRFSDSEIGGITIAWKFDSPERNLWNLKPFTTRDFSIRSLADRLGDLSYLIYVFPDRPKDEVFSKYYTPVLAKAVDGYVKPQIKQVVPEFVNASADAGGSSATYMDQAPSPAVCPQAPYNMYPQNPDHVLDQDGEFDLDETMDVARHVEELLRRPMDSLDSRLSPPAGLFTSARGSLS

The first experiment concerns the target T1, EGFR-L858R (Homo sapiens, UniProt P00533, L858R).
T1 construct: with the advantage of testing full-length integral membrane proteins; (GGGGS)2 linker-Cub (human ubiquitin aa 35-76)-GAL4(1-147)-mNFkB(364-550) (C); expressed in transfected cells
Briefly: MaMTH EGFR-interactor screen, lentiviral preys against EGFR-L858R bait (interaction score). In kind it is cell-based. The settings on record: MaMTH interaction score of prey with EGFR-L858R bait. As for the experimental part:
(§1) After lentivirus harvest, target cells (stable 5×GAL4UAS-luciferase reporter-HEK293T cells) were infected at a multiplicity of infection (MOI) of around 0.3-0.4 to ensure single copy integration per cell. Cells were selected in puromycin for at least 48 h and transfected with either EGFR-wildtype or EGFR-L858R baits in triplicates. 24 h after transfection, cells were lysed and luciferase assays performed. On each set of interaction assays, various negative controls were included. To calculate a MaMTH-interaction scores, negative controls were averaged and the fold-change of luciferase activity compared to the averaged controls was calculated and defined as the interaction score.
(§2) Each set of experiments contains a defined set of negative controls in at least three replicates. Negative controls were chosen as such that there is a range of controls showing high-background luciferase activity (normally cytosolic proteins: Fabp5, Pex19) as well as medium-background luciferase activity (membrane-bound interactors: Pex7, GABBR2). Negative controls were averaged and the fold-change of luciferase activity was calculated. Using this method, we have a stringent cut-off and chose an interaction score >1 to be interacting proteins.
(§3) Our cut-off of 1 is based on fold-change difference in luciferase activity over averaged negative controls. Negative controls include cytosolic preys (which tend to promiscuously bind to many proteins), plasma membrane- and peroxisomal-prey proteins. In general, we chose stringent conditions by testing preys that tend to have high luciferase background with any bait tested, in order to generate high-confidence interaction data. […] Phosphorylated tyrosine residues on the receptor are typically docking sites for downstream cytoplasmic targets and recognized through SH2 or PTB domains^43.
In the case of B1, the EGFR-L858R mean came to 5.95.
The same measure, in the same setting: with B2 the figure was 7.17.
With B3, the EGFR-L858R mean came to 4.47.
B4 gave an EGFR-L858R mean of 16.20.
The same measure, in the same setting: with B5 the figure was 2.27; with B6, 3.26.

For a further experiment, the target named is T2, EGFR-Wt (Homo sapiens, UniProt P00533).
T2 construct: with the advantage of testing full-length integral membrane proteins; (GGGGS)2 linker-Cub (human ubiquitin aa 35-76)-GAL4(1-147)-mNFkB(364-550) (C); expressed in transfected cells
The experiment in a line: MaMTH EGFR-interactor screen, lentiviral preys against EGFR-wildtype bait (interaction score). It counts as cell-based. The settings on record: MaMTH interaction score of prey with EGFR-Wt bait, mean. As for the experimental part: as §1, §2, §3
Turning to B1, the EGFR-Wt mean was 5.84.
On the same count and under the same terms, in the case of B2 it was 7.16; in that of B3, 4.63.
The same measure, in the same setting: with B4 the figure was 16.92; with B5, 2.14.
In the case of B6, the EGFR-Wt mean was determined as 3.12.

The subject of another experiment is EGFR-Wt. The experiment is described as above. The settings on record: ratio of EGFR-Wt mean to EGFR-L858R mean interaction score. In kind it is cell-based, human. As to the method: as §1, §2, §3
On to B1, for which the Wt/L858R is 0.98.
For B2, the Wt/L858R was 1.00.
The same measure, in the same setting: in the case of B3 it was 1.04; in that of B4, 1.04; in that of B5, 0.94.
For B6, the Wt/L858R is reported as 0.96.
